Measured values from US20120121559A1 (VALTED, published 2012).
Each block holds one binder with its values, some of them ahead of it.

Key:
[1] = target: T1, PARIS (parkin interacting substrate) (human, UniProt Q6NUN9 1-644, limits assumed); experiment: immunoprecipitation of endogenous Iduna from MCF7 lysate, immunoblot
T1 construct: Negative control of the co-immunoprecipitation

[2] = target: PARsylated PARP1 (recombinant PARP1 automodified in vitro), P09874
[3] = target: recombinant PARP1, non-PARsylated, P09874
[4] = target: PARsylated PARP1, endogenous protein of MCF7 cells, P09874
PARsylated PARP1, endogenous protein of MCF7 cells, P09874, sequence (P09874 whole entry, looked up): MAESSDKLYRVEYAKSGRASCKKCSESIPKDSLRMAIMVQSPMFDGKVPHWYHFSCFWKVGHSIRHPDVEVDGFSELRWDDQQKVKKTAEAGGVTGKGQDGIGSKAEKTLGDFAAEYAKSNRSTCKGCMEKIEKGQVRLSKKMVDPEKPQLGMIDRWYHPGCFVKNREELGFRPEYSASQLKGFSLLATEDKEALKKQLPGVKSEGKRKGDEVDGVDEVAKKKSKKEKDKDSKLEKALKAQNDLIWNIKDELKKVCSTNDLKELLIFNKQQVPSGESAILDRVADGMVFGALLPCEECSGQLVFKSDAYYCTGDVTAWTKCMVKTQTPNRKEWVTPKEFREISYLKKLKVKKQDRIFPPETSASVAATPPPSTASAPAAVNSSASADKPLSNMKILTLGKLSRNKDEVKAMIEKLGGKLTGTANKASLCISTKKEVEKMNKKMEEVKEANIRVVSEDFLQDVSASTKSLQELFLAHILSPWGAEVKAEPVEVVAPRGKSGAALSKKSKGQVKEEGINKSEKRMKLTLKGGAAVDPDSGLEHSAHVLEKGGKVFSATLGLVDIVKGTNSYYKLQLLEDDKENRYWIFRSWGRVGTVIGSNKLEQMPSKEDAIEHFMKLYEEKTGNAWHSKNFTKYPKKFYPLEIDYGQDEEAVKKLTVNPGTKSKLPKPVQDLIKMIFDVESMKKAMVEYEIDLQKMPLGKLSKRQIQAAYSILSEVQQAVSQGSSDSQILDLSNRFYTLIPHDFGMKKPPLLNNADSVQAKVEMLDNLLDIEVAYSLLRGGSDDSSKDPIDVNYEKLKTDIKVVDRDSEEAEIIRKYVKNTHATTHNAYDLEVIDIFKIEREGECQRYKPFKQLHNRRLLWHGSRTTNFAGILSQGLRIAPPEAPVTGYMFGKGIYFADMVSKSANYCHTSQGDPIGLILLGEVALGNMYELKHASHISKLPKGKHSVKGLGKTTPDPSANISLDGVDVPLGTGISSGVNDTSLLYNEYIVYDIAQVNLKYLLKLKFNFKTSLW

T1 sequence (Q6NUN9 whole entry): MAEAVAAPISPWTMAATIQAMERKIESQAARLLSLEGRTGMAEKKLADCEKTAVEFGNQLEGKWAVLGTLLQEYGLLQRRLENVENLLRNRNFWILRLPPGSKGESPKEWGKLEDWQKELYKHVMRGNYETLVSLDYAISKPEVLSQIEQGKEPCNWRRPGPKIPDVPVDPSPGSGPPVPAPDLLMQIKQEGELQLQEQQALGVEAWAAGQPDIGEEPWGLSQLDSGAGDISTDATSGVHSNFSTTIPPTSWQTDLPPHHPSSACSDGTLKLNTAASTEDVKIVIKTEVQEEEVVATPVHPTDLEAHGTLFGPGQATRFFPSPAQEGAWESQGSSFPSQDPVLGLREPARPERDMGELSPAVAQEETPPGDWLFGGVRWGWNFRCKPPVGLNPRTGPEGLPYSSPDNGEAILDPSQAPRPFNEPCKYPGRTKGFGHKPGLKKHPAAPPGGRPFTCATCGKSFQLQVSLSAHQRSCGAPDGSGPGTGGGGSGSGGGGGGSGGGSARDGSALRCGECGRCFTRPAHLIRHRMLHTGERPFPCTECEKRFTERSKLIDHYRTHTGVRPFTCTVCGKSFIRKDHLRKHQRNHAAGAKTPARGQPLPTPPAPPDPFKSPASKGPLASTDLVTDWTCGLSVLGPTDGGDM
recombinant PARP1, non-PARsylated, P09874, sequence (P09874 whole entry, looked up): as the sequence (P09874 whole entry, looked up) above
PARsylated PARP1 (recombinant PARP1 automodified in vitro), P09874, sequence (P09874 whole entry, looked up): as above

binding result [1]: no binding
B1: human Iduna (RNF146) (enzyme)
chain: MAGCGEIDHSINMLPTNKKANESCSNTAPSLTVPECAICLQTCVHPVSLPCKHVFCYLCVKGASWLGKRCALCRQEIPEDFLDKPTLLSPEELKAASRENGEYAWYYEGRNGWWQYDERTSRELEDAFSKGKKNTEMLIAGFLYVADLENMVQYRRNEHGRRRKVKRDIIDIPKKGVAGLRLDCDANTVNLARESSADGADSVSAQSGASVQPLVSSVRPLTSVDGQLTSPATPSPDASTSLEDSFAHLQLSGDNTAERSHRGEGEEDHESPSSGRVPAPDTSIEETESDASSDSEDVSAVVAQHSLTQQRLLVSNANQTVPDRSDRSGTDRSVAGGGTVSVSVRSRRPDGQCTVIEV
notes: also called hIduna; endogenous Iduna (MCF7 cells)

B2: GST-Iduna (protein)
chain: MEMAGCGEIDHSINMLPTNKKANESCSNTAPSLTVPECAICLQTCVHPVSLPCKHVFCYLCVKGASWLGKRCALCRQEIPEDFLDKPTLLSPEELKAASRGNGEYAWYYEGRNGWWQYDERTSRELEDAFSKGKKNTEMLIAGFLYVADLENMVQYRRNEHGRRRKIKRDIIDIPKKGVAGLRLDCDTNTVNLARESSADGADSGSAQTGASVQLAVPSSTRPLTSVDGQLTSPVTPSPDAGISLEDSFAHLQLSGDSIAERSHRGEGEEDHESPSSGRVPDTSVEETESDASSDSEDAPVVVAQHSLTQQRPLVPNGNQTVADQSDRSGTDRSVAGGGTMSVNVRSRRPDGQCTVIEV
in vitro ubiquitination assay (E1, UBCH 5c, ubiquitin), immunoblot with antibodies to ubiquitin [2]: Only PARsylated PARP1 is ubiquitinated by GST-Iduna | in vitro ubiquitination assay (E1, UBCH 5c, ubiquitin), immunoblot with antibodies to ubiquitin [3]: Only PARsylated PARP1 is ubiquitinated by GST-Iduna (non-PARsylated PARP1 is not ubiquitinated)

B3: GFP-Iduna (EGFP-tagged Iduna) (protein)
chain: MEMAGCGEIDHSINMLPTNKKANESCSNTAPSLTVPECAICLQTCVHPVSLPCKHVFCYLCVKGASWLGKRCALCRQEIPEDFLDKPTLLSPEELKAASRGNGEYAWYYEGRNGWWQYDERTSRELEDAFSKGKKNTEMLIAGFLYVADLENMVQYRRNEHGRRRKIKRDIIDIPKKGVAGLRLDCDTNTVNLARESSADGADSGSAQTGASVQLAVPSSTRPLTSVDGQLTSPVTPSPDAGISLEDSFAHLQLSGDSIAERSHRGEGEEDHESPSSGRVPDTSVEETESDASSDSEDAPVVVAQHSLTQQRPLVPNGNQTVADQSDRSGTDRSVAGGGTMSVNVRSRRPDGQCTVIEV
in vitro ubiquitination assay on anti-GFP immunoprecipitates, immunoblot with antibodies to PAR and ubiquitin [4]: only GFP-Iduna is capable of polyubiquitination of PARsylated PARP1
